Source: publication PMC2779547

Target: KcsA R64C-SL (potassium ion channel KcsA, R64C mutant, spin-labelled with MTSL) (UniProt P0A334)
Test: PELDOR

“KcsA R64C-SL (potassium ion channel KcsA, R64C mutant, spin-labelled with MTSL) (from UniProt P0A334 1-160) (natural protein)” was tested, and the stoichiometry N was 4.
